Results reported in patent US20230295308A1, “ANTAGONISTIC BIPARATOPIC ANTIBODIES THAT SPECIFICALLY BIND FIBROBLAST GROWTH FACTOR RECEPTOR 2 AND METHODS OF USING SAME” (The Broad Institute, Inc., priority 2020, published 2023).
“Also recorded” adds a separate entry of the source.

Tests used:
[1] = biological target: FGFR2b alpha IIIb antigen (UniProt P21802); experiment: SPR (Biacore), antibody on chip, FGFR2b alpha IIIb antigen
FGFR2IIIb = biological target: T1, FGFR2IIIb; experiment: row 'Kd (nM) (patent)', value quoted from the source patent; method: solution equilibrium titration (SET)/ELISA+ECL-FGFR2IIIb
T1 construct: also called purified FGFR2IIIb
T1 chain: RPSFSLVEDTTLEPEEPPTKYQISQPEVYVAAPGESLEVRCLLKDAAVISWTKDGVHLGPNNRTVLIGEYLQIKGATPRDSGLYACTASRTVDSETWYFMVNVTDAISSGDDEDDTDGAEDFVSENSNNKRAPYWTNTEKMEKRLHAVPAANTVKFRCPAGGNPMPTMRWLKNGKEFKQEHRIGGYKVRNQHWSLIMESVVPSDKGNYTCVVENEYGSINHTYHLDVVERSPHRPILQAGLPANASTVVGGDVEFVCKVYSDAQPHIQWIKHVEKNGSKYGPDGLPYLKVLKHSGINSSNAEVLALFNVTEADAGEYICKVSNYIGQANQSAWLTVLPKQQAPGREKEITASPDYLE

[2] = test system: FGFR2-PHDGH fusion expressing BaF3 cells; experiment: growth of BaF3 cells expressing FGFR2-PHGDH fusion, absence of FGF ligands (FIG. 9); assay type: cell-based; settings: absence of FGF ligands
Procedure: Antibodies A-F were tested to determine whether they could inhibit the ligand-induced growth of BaF3 cells expressing FGFR2IIIb. Antibodies C, D, and E, which bind FGFR2 Ig-2 and Ig-3, were effective in blocking ligand-induced growth of BaF3 cells expressing wild-type FGFR2IIIb (FIG. 8). The effects of antibodies A-F were then tested on BaF3 cells expressing FGFR2-PHDGH fusions. […] Antibody F inhibited the FGFR2-PHDGH activating fusion in BaF3 cells (FIG. 9).

FGFR2b alpha IIIb = FGFR2b alpha IIIb (Homo sapiens, UniProt P21802); experiment: Surface Plasmon Resonance (SPR) binding; settings: FGFR2b alpha IIIb antigen
Excerpt: FIGS. 17A-17C provide a schematic and tabular data related to assessments made to compare the avidity of biparatopic antibodies to that of their parental (bivalent monospecific) antibodies.
Surface Plasmon Resonance (SPR) as known in the art was used to determine the binding affinities of biparatopic antibodies. The SPR-based binding method involves immobilization of a ligand (antibody) on the surface of a sensor chip. The binding partner of interest or an analyte (FGFR2 ECD) flow through the flow channel. Different concentrations of an analyte flow over the ligand, and the interactions of ligand-analyte can be characterized. The SPR signal originates from changes in the refractive index of the […] at the surface of the sensor chip. The increase in mass associated with a binding event causes a proportional increase in the refractive index, which is observed as a change in response-resonance signal. In brief, for the experiments using the antibodies described herein, the SPR assay was carried out by immobilizing antibodies (used as […]) at a concentration ranging from 1-1000 nM and flow-through FGFR2b alpha IIIb antigen (used as […]). The antibody kinetic data for the interaction with FGFR2b alpha IIb antigen were fitted to the 2-state and 1-1 binding models using Biocore software. The mean and standard deviation KD values are derived from at least three independent runs.
Using SPR, the kinetics of 6 monospecific and 13 biparatopic antibodies for binding to a single antigen, FGFR2b alpha IIb, was measured so as to compare avidity of the biparatopic antibodies to their parental antibodies. Without wishing to be bound by theory, it was expected that the biparatopic antibodies would bind to the FGFR2 antigen more tightly than their parental antibodies and that the tighter binding biparatopic antibodies among the antibodies that were assessed would be more efficient in blocking FGFR2 dimerization (FIG. 17A), thereby leading to inhibition or blocking of constitutive FGFR2 signaling and/or oncogenic transformation. […]

[3] = biological target: FGFR2 on SNU-16 gastric cancer cell line with FGFR2 amplification (UniProt P21802); experiment: FACS on SNU-16 cells, % No. of cells with FITC+ [cont.]
[4] = test system: BaF3 cells overexpressing FGFR2-PHGDH; experiment: combination of BGJ398 and anti-FGFR2 bivalent antibody, isobolograms and Loewe scores (FIGS. 14, 15); assay type: cell-based; settings: absence of FGF10, treated for 5 days
Excerpt: FIGS. 14B-14D provide isobolograms showing synergy between FGFR inhibitor and the anti-[…] bivalent antibody on the different days and supporting the results shown in FIG. 14A. FIG. 14B corresponds to 3 days after treatment with the BGJ398 inhibitor; FIG. 14C corresponds to 4 days after treatment with the BGJ398 inhibitor; and FIG. 14D corresponds to 5 days after treatment with the BGJ398 inhibitor. FIG. 14E provide Loewe scores showing synergy between the FGFR inhibitor and the anti-FGF2 bivalent antibody on the different days and supporting the results shown in FIG. 14A.
FIG. 15A presents charts showing synergy between the FGFR2 small molecule inhibitor BGJ398 and an anti-FGFR2 bivalent antibody (Antibody D) in the presence of FGF ligand (+FGF) in a cell-based assay using BaF3 cells overexpressing an FGFR2 fusion molecule (FGFR2-PHGDH) after 3, 4 and 5 days of treatment with the inhibitor and the antibody. […] FIGS. 15B-15D provide isobolograms showing synergy between the FGFR inhibitor and the anti-FGF2 bivalent antibody on the different days and supporting the results shown in FIG. 15A. FIG. 15B corresponds to 3 days after treatment with the BGJ398 inhibitor; FIG. 15C corresponds to 4 days after treatment with the BGJ398 inhibitor; and FIG. 15D corresponds to 5 days after treatment with the BGJ398 inhibitor. […]

[5] = biological target: FGFR2 on SNU-16 gastric cancer cell line with FGFR2 amplification (UniProt P21802); experiment: row 'Kd (nM) (FACS)'; FACS on SNU-16 cells
[6] = biological target: FGFR2 on SNU-16 gastric cancer cell line with FGFR2 amplification (UniProt P21802); experiment: FACS on SNU-16 cells, % cells with FITC+ [cont.]
[7] = test system: FGFR2-PHDGH fusion expressing BaF3 cells; experiment: ligand stimulated (FGF10) growth of FGFR2-PHGDH fusion expressing BaF3 cells (FIG. 10); assay type: cell-based; settings: FGF10 present
Procedure: FIG. 10 is a graph showing that antibodies C, D, E and F have activity against ligand stimulated growth of FGFR2-PHDGH fusion expressing BaF3 cells.
The growth of BaF3 cells expressing an FGFR2-PHDGH fusion was assayed in the presence of FGF ligand, FGF10. Antibodies C, D, E and F inhibited ligand stimulated growth of FGFR2-PHDGH fusion expressing BaF3 cells (FIG. 10). Based on the results reported herein above, antagonistic biparatopic antibodies are made using the FGFR2 antibody combinations shown in FIG. 11A. These combinations result in increased growth inhibition effects in oncogenic or cancer cells (e.g., transformed BaF3 cells) that overexpressed […]. Thus, antibodies that bind to epitopes have increased inhibitory and killing effects against cancer cells. Designs for antagonistic biparatopic antibodies are shown at FIGS. 11B and 11C. Advantageously, including complementary mutations in VH-VL and CH1-CL on one-half of the biparatopic antibody results in preferential heterodimeric pairing between two different chains rather than chains from the other half of the same antibody. Alternatively, a linker method is used to create scFab, scFv, or DuoBodies. In this method two antibody chains are each generated in different cells and mixed in vitro. Such methods are known in the art and described, for example, by K. Ding et al, March 2017, Appl. Microbiol. […]

[8] = biological target: FGFR2b alpha IIIb antigen (UniProt P21802); experiment: SPR (Biacore), antibody immobilized, FGFR2b alpha IIIb in flow
[9] = biological target: FGFR2 on SNU-16 gastric cancer cell line with FGFR2 amplification (UniProt P21802); experiment: FACS on SNU-16 cells, % cells with FITC+ against log antibody concentration; Kd printed in the legend box [cont.]

B1: 12433 (antibody, V domains shown)
VH: QVQLVQSGAEVKKPGESLKISCKGSGYSFTNYYIHWVRQMPGKGLEWMGAIYPDNSDTTYSPSFQGQVTISADKSISTAYLQWSSLKASDTAMYYCARGADIWGQGTLVTVSS
VL: DIQMTQSPSSLSASVGDRVTITCRASQDIDPYLSNWYQQKPGKAPKLLIYDASNLQSGVPSRFSGSGSGTDFTLTISSLQPEDFATYYCQQTTSHPYTFGQGTKVEIK
notes: the duobody scheme implies IgG1 with K409R or F405L; also called Antibody F; N12433
In the case of B1, the Kd [1] is reported as 7.5 nM, the Kd (FGFR2IIIb) is reported as 5.6 nM and the “inhibitory activity against the FGFR2-PHGDH activating fusion in BaF3 cells” value [2] is reported as “inhibitory activity; also recorded: inhibited”. For the same molecule, the Kd (FGFR2b alpha IIIb) was 7.5 nM, the EC50 (read off the curve) [3] was 1 µg/mL and the “synergy with BGJ398 in inhibiting FGFR2-PHGDH driven BaF3 cell growth” value [4] was “synergizes”. The Kd [5] was 8.81 nM, the EC50 (read off the curve) [6] was 1 µg/mL and the “inhibition of ligand stimulated growth of FGFR2-PHGDH fusion expressing BaF3 cells” value [7] was “have activity; also recorded: inhibited”. The Binding Stoichiometry [8] was 2.1 and the Kd [9] was 8.81 nM.
